B1: Protein PTHB1 (Homo sapiens), Q3SYG4 (parent)
chain: MSLFKARDWWSTILGDKEEFDQGCLCLANVDNSGNGQDKIIVGSFMGYLRIFSPHPAKTGDGAQAEDLLLEVDLRDPVLQVEVGKFVSGTEMLHLAVLHSRKLCVYSVSGTLGNVEHGNQCQMKLMYEHNLQRTACNMTYGSFGGVKGRDLICIQSMDGMLMVFEQESYAFGRFLPGFLLPGPLAYSSRTDSFLTVSSCQQVESYKYQVLAFATDADKRQETEQQKLGSGKRLVVDWTLNIGEQALDICIVSFNQSASSVFVLGERNFFCLKDNGQIRFMKKLDWSPSCFLPYCSVSEGTINTLIGNHNNMLHIYQDVTLKWATQLPHIPVAVRVGCLHDLKGVIVTLSDDGHLQCSYLGTDPSLFQAPNVQSRELNYDELDVEMKELQKIIKDVNKSQGVWPMTEREDDLNVSVVVSPNFDSVSQATDVEVGTDLVPSVTVKVTLQNRVILQKAKLSVYVQPPLELTCDQFTFEFMTPDLTRTVSFSVYLKRSYTPSELEGNAVVSYSRPTDRNPDGIPRVIQCKFRLPLKLICLPGQPSKTASHKITIDTNKSPVSLLSLFPGFASQSDDDQVNVMGFHFLGGARITVLASKTSQRYRIQSEQFEDLWLITNELILRLQEYFEKQGVKDFACSFSGSIPLQEYFELIDHHFELRINGEKLEELLSERAVQFRAIQRRLLARFKDKTPAPLQHLDTLLDGTYKQVIALADAVEENQGNLFQSFTRLKSATHLVILLIALWQKLSADQVAILEAAFLPLQEDTQELGWEETVDAAISHLLKTCLSKSSKEQALNLNSQLNIPKDTSQLKKHITLLCDRLSKGGRLCLSTDAAAPQTMVMPGGCTTIPESDLEERSVEQDSTELFTNHRHLTAETPRPEVSPLQGVSE
partner: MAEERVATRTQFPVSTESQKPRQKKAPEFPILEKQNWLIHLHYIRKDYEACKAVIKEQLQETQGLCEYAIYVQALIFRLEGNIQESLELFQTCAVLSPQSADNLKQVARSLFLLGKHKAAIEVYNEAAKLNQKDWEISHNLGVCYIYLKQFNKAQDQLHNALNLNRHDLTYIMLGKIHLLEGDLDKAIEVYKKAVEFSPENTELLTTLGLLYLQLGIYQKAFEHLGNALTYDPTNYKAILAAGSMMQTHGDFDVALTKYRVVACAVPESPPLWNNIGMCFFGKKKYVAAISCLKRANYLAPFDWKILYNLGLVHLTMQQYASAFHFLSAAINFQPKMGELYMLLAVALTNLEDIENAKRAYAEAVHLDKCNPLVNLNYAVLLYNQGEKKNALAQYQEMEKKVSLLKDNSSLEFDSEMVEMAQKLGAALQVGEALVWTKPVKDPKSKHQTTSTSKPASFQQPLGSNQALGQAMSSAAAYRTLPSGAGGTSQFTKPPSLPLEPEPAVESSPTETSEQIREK

Variants of: B1
Settings: with bbs4_human BBS4, Q96RK4

Variant | effect of a mutation on the interaction
Y645A | with no effect
Y645E | with no effect
G579E | with no effect
R510A | with no effect
L779K | with no effect
S860E | with no effect
T725A | with no effect
Q722E | with no effect
F580E | with no effect
T865K | with no effect
T763A | with no effect
C469E | with no effect
L583K | with no effect
L695A | with no effect
S541K | with no effect
E853A | with no effect
E873A | with no effect
F684K | with no effect
S596E | with no effect
V856K | with no effect
L814A | with no effect
L620K | with no effect
R683E | with no effect

Variant | effect of a mutation on the interaction
Q524A | with no effect
F563A | with no effect
I617A | with no effect
I617T | disrupting interaction strength
N800E | with no effect
P847E | with no effect
D711E | with no effect
L780E | with no effect
S555A | with no effect
L446K | with no effect
V430A | with no effect
D517K | with no effect
Y490K | with no effect
R854E | with no effect
G701K | with no effect
P537A | with no effect
K786A | with no effect
C843A | with no effect
T829A | with no effect
T829K | with no effect
D409A | with no effect
I534E | with no effect
P840E | with no effect

Variant | effect of a mutation on the interaction
Q605K | with no effect
L648E | with no effect
T441A | with no effect
A567E | with no effect
S855K | with no effect
R726E | with no effect
E862K | with no effect
H694E | disrupting interaction strength
C816E | with no effect
L808K | with no effect
G823K | with no effect
L481E | with no effect
S797E | with no effect
V629I | disrupting interaction strength
L882E | with no effect
T482K | with no effect
L529K | with no effect
Q447K | with no effect
C783E | with no effect
T731A | with no effect
L784A | with no effect
M839E | disrupting interaction strength
T484A | with no effect

Variant | effect of a mutation on the interaction
Q643K | with no effect
T434A | with no effect
K443E | with no effect
H732K | with no effect
S603E | with no effect
T844A | with no effect
L665F | disrupting interaction strength
S498A | with no effect
N614K | with no effect
Q883K | with no effect
L733E | with no effect
K542A | with no effect
D830A | with no effect
I738A | disrupting interaction strength
G628E | with no effect
R679L | disrupting interaction strength
R679E | with no effect
S509K | with no effect
T613I | disrupting interaction strength
F474A | with no effect
F476K | with no effect

— IntAct's records for PubMed 29039417
